The test concerns the target SARS-CoV-2 Spike RBD-His (Cat #: 40592-V08B) (SARS-CoV-2), P0DTC2.

As for CIEEQAKTFLDKFNHEAEDLFYQS (modifications not checked) [Cys-SBP], the N:Au ratio (XPS) after RBD binding is 1.31. Regarding CIEEQAKTFLDKFNHEAEDLFYQS (modifications not checked) [Cys-SBP-PEG4], the N:Au ratio (XPS) after RBD binding was found to be 1.45.

The values above are taken from patent publication US20240369491A1.
